± gives the standard deviation.
Experiment: protein stability index of a GFP-peptide fusion (GPS, HEK-293T) (PSI 1-6); higher = more stable
[1] = treatment: DMSO, c terminus: a fixed tail appended
[2] = treatment: MLN4924 1 uM, 8 h, c terminus: a fixed tail appended
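Further: 24-mer peptide tiles fused after GFP, lentivirally expressed, FACS-sorted into six equal bins by GFP/DsRed ratio, decoded by Illumina sequencing, PSI is the read-weighted mean bin number.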

Sequence	protein stability index [1]	protein stability index [2]	protein stability index (treatment: DMSO, c terminus: native)	protein stability index (treatment: MLN4924 1 uM, 8 h, c terminus: native)
HSAAYRADPLRVSSRDKLTEMAAS [FUNDC2]	3.92 ± 0.3	4.23 ± 0.22	–	–
DNAPVFTLPEYRVSVPENLPVGTQ [PCDHGA10]	4.54 ± 0.17	4.45 ± 0.26	–	–
KTPVLLTDYPVDLDEIAYFTWAS [MYORG]	–	–	2.25 ± 0.15	2.18 ± 0.3
ATTYKHGVLTRKTHADMDGKRTPR [PSD2]	4.44 ± 0.16	4.63 ± 0.26	–	–
LNVHDLDSEQNGQVTCSILAYLPF [PCDHGA10]	2.24 ± 0.22	2.19 ± 0.41	–	–
NSDQTTCRIQDLCAMEDHNCEQLC [MATN2]	4.04 ± 0.29	4.05 ± 0.23	–	–
AMLREKFPEFCSSPSPPVEVKIEE [INTS3]	4.51 ± 0.3	4.65 ± 0.12	–	–
ARFITDFLDNGYGHCLLDKPEAPL [ADAMTS4]	2.19 ± 0.2	2.01 ± 0.22	–	–
KAGLENSLAETECRYATQLQQIQG [KRT15]	3.92 ± 0.049	4 ± 0.3	–	–
LVEKGVLTTEKQNFLLFDMTTHPL [GOLPH3]	2.51 ± 0.27	2.5 ± 0.3	–	–
APQGGMAALNMSLGMVTPVNDLRG [ADD1]	3.83 ± 0.23	3.77 ± 0.097	–	–
VNRTTRTNSTPLRAACFDGHLEVV [FEM1A]	2.9 ± 0.35	2.74 ± 0.34	–	–
MSAPGSPDQAYDFLLKFLLVGDRD [RAB40A]	2.27 ± 0.23	2.42 ± 0.38	–	–
KEPVIIECGHNFCKACITRWWEDL [TRIM39]	2.53 ± 0.5	2.62 ± 0.36	–	–
QEENKSLREENKALREENRMLSKE [CBY2]	5.56 ± 0.47	5.587 ± 0.023	–	–
QRAFSIQTPEQYYFCYKAILEFAE [PTPN9]	2.16 ± 0.29	2.16 ± 0.35	–	–
RRVKLQLWDTSGQGRFCTIFRSYS [RAB40B]	2.21 ± 0.57	2.08 ± 0.32	–	–
EAIQPYRDRLRSRLEALSTERDEI [TRIM15]	4.61 ± 0.12	4.52 ± 0.14	–	–
EKVEVQLPELFHKIGVGAMTWSPL [KCNAB2]	2.45 ± 0.26	2.51 ± 0.16	–	–
EFVNGWYILLVTSDVLTISGTIMK [MCOLN1]	3.06 ± 0.26	3.08 ± 0.33	–	–
VIKMLVNDNKVLRYLAVLESPIPE [EFHC1]	2.32 ± 0.31	–	–	–
SQGQWGRAWEVDWFSLASVIFLLL [DHCR7]	2.68 ± 0.033	2.39 ± 0.48	–	–
CSSSTRSVLKRPERSQEESPPGST [CDC25A]	5.17 ± 0.21	4.95 ± 0.34	–	–

Sequence	protein stability index [1]	protein stability index [2]	protein stability index (treatment: DMSO, c terminus: native)	protein stability index (treatment: MLN4924 1 uM, 8 h, c terminus: native)
IDPRNGIPKLTPGDNPYMYPEQSK [SPATS1]	4.58 ± 0.13	4.5 ± 0.18	–	–
GIMCLKRLNYDRKELEKRREESQH [PPFIA4]	3.69 ± 0.31	3.62 ± 0.4	–	–
PPGDIMFLLVQRFGELMRKLWNPR [USP39]	2.77 ± 0.31	2.77 ± 0.17	–	–
HVSPPPSADPARGLPRSRDCRVDL [PDLIM4]	4.76 ± 0.14	4.73 ± 0.13	–	–
ENQRLFEMLGRKCLTLATAVVQLY [WAS]	2.26 ± 0.21	2.44 ± 0.33	–	–
PQVLADLGSFESPANSETSDLTLY [PCDHGA10]	4.19 ± 0.36	4.38 ± 0.34	–	–
PEAAVLFRQMATALAHCHQHGLVL [TRIB3]	2.92 ± 0.55	2.88 ± 0.48	–	–
TAEPFPRLHNLYSTPRCAQQAALP [CBY2]	2.67 ± 0.2	2.66 ± 0.24	–	–
TKVGSFMIRESETKKGFYSLSVRH [SLA]	2.68 ± 0.37	2.66 ± 0.69	–	–
QPRKGGADWLGLKDEDLDLFPASP [FBF1]	4.71 ± 0.1	4.79 ± 0.17	–	–
VTTRQVRTIVEEVQDGKVISSREQ [KRT17]	4.87 ± 0.3	4.87 ± 0.36	–	–
LKDVKSTLEKCEKVKTMEVTSVSI [TRIM39]	3.92 ± 0.16	3.89 ± 0.17	–	–
NLLLAKGANINAFDKKDRRALHWA [ANKRD44]	2.32 ± 0.34	2.5 ± 0.17	–	–
PAVRQRVIEEAKTAFLLNIQLFEE [HMOX1]	2.66 ± 0.37	3.17 ± 0.26	–	–
LRHSNPRADPLVCATGLLGSAPFL [SPNS1]	2.28 ± 0.31	2.75 ± 0.39	–	–
RRGRHEQSPTSRPRKVSSLPPRSC [C22orf15]	4.35 ± 0.066	4.61 ± 0.22	–	–
LVSDDPRCRLSLDDRVLSSLVRDT [POP5]	3.44 ± 0.24	3.68 ± 0.12	–	–
KSLSELVDDKFGTGTKKVTRILDG [PSD2]	4.44 ± 0.18	4.53 ± 0.23	–	–
HLVIAEMMELGSRSRGASQKKQKL [FATE1]	3.25 ± 0.14	3.34 ± 0.2	–	–
GPMPMSMPNVMTGTMGMAPLGNTP [CLINT1]	4.03 ± 0.21	4.02 ± 0.31	–	–
WLYCYDPVMDVWARKQDMNTKRAI [KLHL14]	2.07 ± 0.28	2.53 ± 0.55	–	–
HLRTHTGERPYKCSECGESFSRSS [ZNF263]	3.16 ± 0.19	3.38 ± 0.55	–	–
VSDSLTWREFHYIQSKLGIVSLLL [STEAP1]	2.45 ± 0.54	2.18 ± 0.25	–	–

Sequence	protein stability index [1]	protein stability index [2]	protein stability index (treatment: DMSO, c terminus: native)	protein stability index (treatment: MLN4924 1 uM, 8 h, c terminus: native)
SQGAISEGAQRDRFPGRKQPGVHE [C22orf31]	5.05 ± 0.095	5.1 ± 0.18	–	–
DLRADDLPGPAFESYESMELACPA [KLHDC2]	4.84 ± 0.11	4.72 ± 0.34	–	–
HRLRVQQAALRAARLRHQELFRLR [NOP53]	2.88 ± 0.23	2.87 ± 0.4	–	–
GSNYANFELDLGKKVLNLLKGAFP [PTPN9]	2.29 ± 0.42	2.12 ± 0.35	–	–
RFLRMLLRLADEFGVAVVITNQVV [RAD51]	2.46 ± 0.45	2.45 ± 0.84	–	–
TFEQAIQAASRIIRNEQFAIRRFQ [CDC25B]	2.38 ± 0.48	2.01 ± 0.32	–	–
AQVPDTRWSRVGGQRFYSRVLSPL	2.41 ± 0.69	2.75 ± 0.43	–	–
RSLENYHFVDEHGKDQGINIRQKV [CLINT1]	3.77 ± 0.23	3.75 ± 0.4	–	–
GAELHLQPLEGGTPNSAGGPGAHI [ADAMTS4]	4.51 ± 1.1	4.74 ± 0.36	–	–
VGVDRAFPLKPMVHRKSCSTGEAG [ZC2HC1C]	3.74 ± 0.18	4.2 ± 0.16	–	–
GPGDGPPEIAQNFSAPDPPRPRPV [SMTNL2]	5.05 ± 0.19	5.03 ± 0.24	–	–
DDHECCERVVINISGLRFETQLKT [KCNA1]	2.79 ± 0.3	2.61 ± 0.25	–	–
IMDANQTYLVSERLEREERNQTQV [FAF2]	4.16 ± 0.2	4.32 ± 0.1	–	–
FSDSRSNNDDDEDEDDEDEDEDED [TAF7L]	5.7 ± 0.19	5.58 ± 0.41	–	–
EARFIRRSCTPNAEVRHEIQDGTI [KMT2E]	4.34 ± 0.67	4.27 ± 0.11	–	–
QRLIKKVQEAVLDKWVNDPHRMDR [GOLPH3]	2.34 ± 0.19	2.27 ± 0.2	–	–
FRVGKKIGCGNFGELRLGKNLYTN [CSNK1G3]	2.06 ± 0.19	2.28 ± 0.087	–	–
SLVIGALLASLTGGVLIDRYGRRT [SLC2A12]	2.89 ± 0.45	3.03 ± 0.42	–	–
GSNDRVQGVISQLEDTCKTIEECC [TRIM55]	4.71 ± 0.098	4.77 ± 0.31	–	–
EQLQQILKRKNKQAFLDELESSDL [MNAT1]	3.48 ± 0.46	3.73 ± 0.39	–	–
LPLLESCSVRPDASVSSHRFFGPN [TCF25]	3.17 ± 0.24	3.27 ± 0.26	–	–
FPHSGKDCLLCFPETLPESSLFSV [C8orf76]	2.21 ± 0.52	2.36 ± 0.32	–	–
QPCFFQDISMEIPQEFQKTVSTMY [SCAMP3]	2.55 ± 0.4	2.64 ± 0.23	–	–

Sequence	protein stability index [1]	protein stability index [2]	protein stability index (treatment: DMSO, c terminus: native)	protein stability index (treatment: MLN4924 1 uM, 8 h, c terminus: native)
RLREAAALGDIREVQKLVESGVDV [ANKRD40]	4.28 ± 0.23	4.19 ± 0.077	–	–
RNYLNYGEEGAPGKWQQQGDLQDT [CHGB]	4.86 ± 0.14	4.94 ± 0.39	–	–
ALAPKQELPSALESHEVPGTLSMG [ZNF24]	4.59 ± 0.25	4.75 ± 0.3	–	–
SRCRNSYTEQELKPLTLEALGHLG [DLC1]	2.85 ± 0.32	2.99 ± 0.21	–	–
PENTNRQLLLQFERLVVLDYIIRN [PI4K2A]	2.77 ± 0.34	2.56 ± 0.68	–	–
LTYSTRMSQTVQRMLVAASWACAF [OR3A1]	3.35 ± 0.71	3 ± 0.65	–	–
RMLVAASWACAFTNALTHTVAMST [OR3A1]	3.07 ± 0.24	3.18 ± 0.5	–	–
NGRGELVESLKRFCASTRLPPTPL [AUP1]	3.18 ± 0.38	2.94 ± 0.5	–	–
EQGFSQSFTQEQVADIDGQYAMTR [CTNNB1]	4.86 ± 0.083	4.61 ± 0.16	–	–
SISELKHALSGHAKVKPFDPKITC [TPH1]	2.77 ± 0.45	2.93 ± 0.37	–	–
DYNQAEMKQRDNCKIRIQRQLEIM [STX11]	2.9 ± 0.19	3.15 ± 0.31	–	–
VPNAKKLRRKEQLWEKLAKQGELP [NOP53]	3.35 ± 0.33	3.51 ± 0.39	–	–
ESPSTLQVLPDSESLPRSEIDEKV [MAGEA10]	5.62 ± 0.19	5.63 ± 0.3	–	–
LASHHNHFSQIVIFMLCTLVLAIP [OR10K2]	3.06 ± 0.22	3.13 ± 0.18	–	–
RFCLVPSMEGVRWAFSCGTWLPSR [AASDHPPT]	2.48 ± 0.79	2.32 ± 0.056	–	–
LQANDVFHKQQWFNCIRAAIAPFQ [NET1]	2.14 ± 0.26	2.24 ± 0.28	–	–
RQFEFSVDSFQIILDSLLFFYDCS [TENT5C]	3.06 ± 0.57	3.04 ± 0.61	–	–
AVLPTAFRVAKKRAPKVLGTTLVV [GDAP1]	2.18 ± 0.2	2.15 ± 0.2	–	–
REQSRLTSCLKKREEMKLKECVSI [TNFSF13B]	3.62 ± 0.11	3.81 ± 0.24	–	–
GKYDSGIPPYSRASLKGYQWLKDK [KCNAB2]	3.26 ± 0.073	3.23 ± 0.24	–	–

Source: the supplement of paper PMC10567573
